The data set addresses ST-pro-factor D-His, P00746.

Sequence of ST-pro-factor D-His, P00746 (P00746 whole entry, looked up): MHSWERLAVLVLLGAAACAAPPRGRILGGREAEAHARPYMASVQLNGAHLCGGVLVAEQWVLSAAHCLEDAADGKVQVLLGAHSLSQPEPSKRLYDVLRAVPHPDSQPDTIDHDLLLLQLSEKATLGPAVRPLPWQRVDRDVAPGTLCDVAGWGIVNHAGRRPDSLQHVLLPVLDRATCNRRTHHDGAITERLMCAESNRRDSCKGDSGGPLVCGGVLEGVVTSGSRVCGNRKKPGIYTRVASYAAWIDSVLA

B1: recombinant human MASP-1 (CCP1-CCP2-SP) fragment, active (protein)
chain: GNECPELQPPVHGKIEPSQAKYFFKDQVLVSCDTGYKVLKDNVEMDTFQIECLKDGTWSNKIPTCKIVDCRAPGELEHGLITFSTRNNLTTYKSEIKYSCQEPYYKMLNNNTGIYTCSAQGVWMNKVLGRSLPTCLPVCGLPKFSRKLMARIFNGRPAQKGTTPWIAMLSHLNGQPFCGGSLLGSSWIVTAAHCLHQSLDPKDPTLRDSDLLSPSDFKIILGKHWRLRSDENEQHLGVKHTTLHPKYDPNTFENDVALVELLESPVLNAFVMPICLPEGPQQEGAMVIVSGWGKQFLQRFPETLMEIEIPIVDHSTCQKAYAPLKKKVTRDMICAGEKEGGKDACSGDSGGPMVTLNRERGQWYLVGTVSWGDDCGKKDRYGVYSYIHHNKDWIQRVTGVRN
On to B1, for which the “cleavage of pro-factor D (Western blot)” value is “only full length MASP-3 (lane 2) and the MASP-1 CCP1-CCP2-SP) fragment (lane 5) cleaved ST-pro-factor D-His6”.

B2: recombinant full-length human MASP-3 (protein)
chain: HTVELNNMFGQIQSPGYPDSYPSDSEVTWNITVPDGFRIKLYFMHFNLESSYLCEYDYVKVETEDQVLATFCGRETTDTEQTPGQEVVLSPGSFMSITFRSDFSNEERFTGFDAHYMAVDVDECKEREDEELSCDHYCHNYIGGYYCSCRFGYILHTDNRTCRVECSDNLFTQRTGVITSPDFPNPYPKSSECLYTIELEEGFMVNLQFEDIFDIEDHPEVPCPYDYIKIKVGPKVLGPFCGEKAPEPISTQSHSVLILFHSDNSGENRGWRLSYRAAGNECPELQPPVHGKIEPSQAKYFFKDQVLVSCDTGYKVLKDNVEMDTFQIECLKDGTWSNKIPTCKIVDCRAPGELEHGLITFSTRNNLTTYKSEIKYSCQEPYYKMLNNNTGIYTCSAQGVWMNKVLGRSLPTCLPECGQPSRSLPSLVKRIIGGRNAEPGLFPWQALIVVEDTSRVPNDKWFGSGALLSASWILTAAHVLRSQRRDTTVIPVSKEHVTVYLGLHDVRDKSGAVNSSAARVVLHPDFNIQNYNHDIALVQLQEPVPLGPHVMPVCLPRLEPEGPAPHMLGLVAGWGISNPNVTVDEIISSGTRTLSDVLQYVKLPVVPHAECKTSYESRSGNYSVTENMFCAGYYEGGKDTCLGDSGGAFVIFDDLSQRWVVQGLVSWGGPEECGSKQVYGVYTKVSNYVDWVWEQMGLPQSVVEPQVER
Take B2: the “cleavage of pro-factor D (Western blot)” value is “only full length MASP-3 (lane 2) and the MASP-1 CCP1-CCP2-SP) fragment (lane 5) cleaved ST-pro-factor D-His6”.

For the origin of these results see patent US20200270125.
